Data on 5 molecules can be found in US20240228599A1 (Sanofi, published 2024).

For test [1], the target named is T1, purified human Factor Bb (human, UniProt P00751 260-764).
T1 construct: Bought purified protein (Complement Technologies); also called fBb; complement factor Bb
Put plainly: ELISA on coated human Factor Bb; EC50 calculated with PRISM from the curves of FIG. 1. Here is the method: (§1) The relative EC₅₀ values for factor Bb mAbs were determined by ELISA. Unlabeled purified human Factor Bb (Complement Technologies; 1 μg/mL) was coated onto a high binding ELISA plate, and incubated with increasing amounts of purified mAbs (3-fold serial dilutions starting at 10 μg/mL). Horse radish peroxidase (HRP)-conjugated goat anti-mouse secondary antibody (Southern Biotech) was used for detection, and reacted with 3,3′,5,5′-Tetramethylbenzidine (TMB) 1-Step Ultra TMB-ELISA Substrate Solution (Thermo Scientific). Reactions were stopped with an equal volume of 1N sulfuric acid; and absorbance at OD₄₅₀ₙₘ was measured.
Target sequence in this assay (P00751 260-764 limits assumed): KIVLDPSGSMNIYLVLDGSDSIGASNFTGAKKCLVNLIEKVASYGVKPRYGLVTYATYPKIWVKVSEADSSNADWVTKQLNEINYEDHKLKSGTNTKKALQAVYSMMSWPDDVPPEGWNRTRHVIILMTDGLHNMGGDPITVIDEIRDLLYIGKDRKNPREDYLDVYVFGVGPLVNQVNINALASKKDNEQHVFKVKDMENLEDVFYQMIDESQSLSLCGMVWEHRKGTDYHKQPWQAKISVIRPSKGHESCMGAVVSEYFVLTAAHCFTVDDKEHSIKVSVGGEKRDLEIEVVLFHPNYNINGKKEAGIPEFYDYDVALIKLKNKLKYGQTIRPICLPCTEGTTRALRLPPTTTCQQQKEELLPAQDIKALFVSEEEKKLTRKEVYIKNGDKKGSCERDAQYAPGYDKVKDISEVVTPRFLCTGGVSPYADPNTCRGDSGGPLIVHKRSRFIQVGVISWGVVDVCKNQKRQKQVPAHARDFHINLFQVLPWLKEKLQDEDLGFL

The target of test [2] is T1, purified human Factor Bb. Kind of test: antigen-capture ELISA, ratio of absorbance with biotinylated Factor Bb to that with Factor B. The method, then:
(§2) Preferential binding of factor Bb antibodies to activated factor B versus full length Factor B zymogen was determined in an optimized antigen-capture ELISA format to evaluate binding to target soluble proteins. 1 μg/mL of antibody was bound to goat anti-mouse IgG coated plates (Pierce; Thermo Scientific), followed by incubation with 1 μg/mL biotinylated factor Bb or factor B (Complement Technologies). Bound factor Bb/B proteins were detected with streptavidin-HRP and reacted with TMB 1-Step Ultra TMB-ELISA Substrate Solution (Thermo Scientific). Reactions were stopped with an equal volume of 1N sulfuric acid; and absorbance at OD₄₅₀ₙₘ was measured. The ratio of absorbance of binding by Factor Bb versus Factor B (fBb/B ratio) was calculated and the results are shown in FIG. 3.
Target sequence in this assay (P00751 260-764 limits assumed): as above
In general terms: An ELISA detects its analyte on a solid surface through an enzyme-linked reagent.

The target of test [3] is T1, purified human Factor Bb. Kind of test: ELISA; human Factor Bb coated at 1 µg/mL, mAb in 3-fold dilutions from 10 µg/mL, HRP goat anti-mouse, OD450. The method, then:
as §1
Target sequence in this assay (P00751 260-764 limits assumed): as above

The target in test [4] is T1, purified human Factor Bb. Put plainly: antigen-capture ELISA; mAb at 1 µg/mL on goat anti-mouse IgG plates, 1 µg/mL biotinylated Factor Bb or Factor B, streptavidin-HRP; OD450 with Factor Bb divided by OD450 with Factor B. The method, then:
as §2

The target in test [5] is cynomolgus monkey Factor Bb (cynomolgus monkey). Put plainly: cell-based or functional assay.
In test [6] the target is T2, cynomolgus monkey Factor Bb (cynomolgus monkey).
T2 construct: In the serum assays the target is the factor B/Bb of cynomolgus serum; also called cyno Factor Bb
Kind of test: ELISA; cynomolgus Factor Bb coated at 5 µg/mL, mAb in 3-fold dilutions from 10 µg/mL; EC50 by Prism according to the text, headed 'Binding Affinity (M)' on the sheet. The method, then: as §1
(§3) Factor Bb mAbs were assayed for their ability to bind to cynomolgus monkey Factor B or Factor Bb by ELISA. 5 μg/mL of each purified protein (Innovative Research; purified in-house) was coated onto ELISA plates, incubated with purified factor Bb mAbs (3-fold serial dilutions starting at 10 μg/mL), and bound antibody was detected as in Example 2.

Test [7] has as its target T1, purified human Factor Bb. Kind of test: cell-based or functional assay.
For test [8], the target named is T1, purified human Factor Bb. Put plainly: antigen-capture ELISA; mAb at 1 µg/mL on goat anti-mouse IgG plates, 1 µg/mL biotinylated Factor Bb or Factor B, streptavidin-HRP; OD450 with Factor Bb divided by OD450 with Factor B; the text rounds this to 5.5. The method, then: as §2
Another test concerns the target T3, full-length Factor B (UniProt P00751 26-764).
T3 construct: Biotinylated in the antigen-capture ELISA, unlabeled in SEC; also called Factor B zymogen; FB
Kind of test: antigen-capture ELISA, antibody on goat anti-mouse IgG plate. The method, then: as §2

In test [9] the target is T4, cynomolgus monkey Factor Bb (cynomolgus monkey).
T4 chain: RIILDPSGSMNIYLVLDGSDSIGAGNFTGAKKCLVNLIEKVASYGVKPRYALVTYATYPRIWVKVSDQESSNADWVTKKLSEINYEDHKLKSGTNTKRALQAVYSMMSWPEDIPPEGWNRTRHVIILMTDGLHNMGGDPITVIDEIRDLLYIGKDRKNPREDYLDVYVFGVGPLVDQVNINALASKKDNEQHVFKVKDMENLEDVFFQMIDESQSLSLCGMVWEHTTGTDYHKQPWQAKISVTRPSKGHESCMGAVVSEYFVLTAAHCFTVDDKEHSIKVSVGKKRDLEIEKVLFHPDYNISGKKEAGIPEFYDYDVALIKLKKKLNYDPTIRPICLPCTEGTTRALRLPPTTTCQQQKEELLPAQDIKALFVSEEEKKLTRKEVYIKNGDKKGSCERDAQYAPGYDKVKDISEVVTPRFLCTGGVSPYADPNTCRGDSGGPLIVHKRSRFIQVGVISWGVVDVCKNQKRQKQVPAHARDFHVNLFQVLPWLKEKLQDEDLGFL
Put plainly: ELISA; cynomolgus Factor Bb coated at 5 µg/mL, mAb in 3-fold dilutions from 10 µg/mL; EC50 by Prism according to the text, headed 'Binding Affinity (M)' on the sheet. The method, then: as §1, §3

B1: anti-factor Bb monoclonal antibody M4 (antibody, V domains shown)
VH: EVQLQQSGPELVKPGASVKMSCKASGYSFTDYLMNWVKQSHGKSLEWIGRINPYNGDAFYNQRFKGKATLTVDKSSSTAHMELRSLTSEDSALYYCARLENDYGFTYWGQGTLVTVSA
VL: DIVMTQAAFSNPVTLGTSASISCSSSKSLLHSNGITYLYWYLQRPGQSPQLLIYRMSNLASGVPDRFSGSGSGTDFTLRISRVEAEDVGVYYCAQMLERPWTFGGGTKLEIK
notes: Mouse monoclonal purified from hybridoma supernatant; also called Factor B/Bb antibody M4
For B1, in the test with purified human Factor Bb [1], the EC50 was 0.874 nM. In addition, the fBb/B ratio in the test with purified human Factor Bb [2] was not below 1. Besides, in the test with purified human Factor Bb [3], the “EC50 (read off the curve)” value is approximately 0.8 nM. Besides, the “Ratio OD fBb/fB (ELISA)” value with purified human Factor Bb [4] stood at 0.59. For the same molecule, the “IC50, hemolysis of rabbit RBCs by 5% cynomolgus monkey serum” value (shortened to “IC50 … by 5% cynomolgus monkey serum”) in test [5] is 25 nM.

B2: anti-factor Bb monoclonal antibody M12 (antibody, V domains shown)
VH: B1 VH
VL: B1 VL
notes: Mouse monoclonal purified from hybridoma supernatant
Regarding B2, the EC50 in the test with purified human Factor Bb [1] was 0.761 nM; in [6], 2.55 nM. In addition, the fBb/B ratio in the test with purified human Factor Bb [2] was not below 1. Moreover, in the test with purified human Factor Bb [3], the “EC50 (read off the curve)” value was approximately 0.7 nM. In addition, the “Ratio OD fBb/fB (ELISA)” value with purified human Factor Bb [4] came out at 0.82. Moreover, the “IC50 … by 5% cynomolgus monkey serum” value in [5] came to 28.2 nM.

B3: anti-factor Bb monoclonal antibody M10 (antibody, V domains shown)
VH: EVQLVESGGALVKPGGSLKLSCAASGFTFSNYAMSWVRQTPEKRLEWVATISNRGSYTYYPDSVKGRFTISRDNAKNTLYLQMSSLRSEDTALYYCARERPMDYWGQGTSVTVSS
VL: DIVMTQSHKFMSTSVGDRVSITCKASQDVGTAVAWYQQKPGQSPKLLIYWASTRHTGVPDRFTGSGSGTDFTLTITNVQSEDLAVYFCHQHSSNPLTFGAGTKLELK
notes: as for B2
In the case of B3, the EC50 with purified human Factor Bb [1] was 0.335 nM; in test [6] it was 0.488 nM. Further, the fBb/B ratio in the test with purified human Factor Bb [2] turned out to be 5.5. Further, the “EC50 (read off the curve)” value with purified human Factor Bb [3] is approximately 0.3 nM. Also, the “IC50, Wieslab AP activity, 5.5% normal human serum” value in the test with purified human Factor Bb [7] was determined as 97.9 nM. Besides, the “IC50, Wieslab AP activity, 5.5% cynomolgus monkey serum” value in [5] turned out to be 367 nM. The “IC50 … by 5% cynomolgus monkey serum” value in [5] worked out at 220 nM. Further, the “Ratio OD fBb/fB (ELISA)” value with purified human Factor Bb [8] is 5.49.

B4: anti-factor Bb monoclonal antibody M18 (antibody, V domains shown)
VH: B3 VH
VL: B3 VL
notes: as for B2
B4: the EC50 is 0.336 nM with purified human Factor Bb [1] and 0.449 nM in test [6]. The fBb/B ratio with purified human Factor Bb [2] is 8.4. In addition, the “EC50 (read off the curve)” value with purified human Factor Bb [3] is approximately 0.3 nM. Besides, the “IC50 … by 5% cynomolgus monkey serum” value in [5] was 232 nM.

B5: anti-factor Bb monoclonal antibody M17 (antibody, V domains shown)
VH: EVQLVESGGVLVKPGGSLKLSCAASGFTFSNFAMSWVRQTPAKRLEWVATISNGGGYTYYPDSVQGRFTISRDNANNTLYLQMSSLRSEDTALYYCARIYYGSSYEDWFAYWGQGTLVTVSA
VL: DIVMTPSHKFMSTSVGDRVSITCKASQDVGSAVAWYQQKPGHSPKLLIFWASTRHTGVPDRFTGSGSGTDFTLTISNVQSEDLADYFCQQYSSYPYTFGGGTRLEIK
notes: as for B2
Consider B5, for which the figures for the EC50 (with purified human Factor Bb [1]; in test [9]) were 3.14 nM and approximately 2.64 nM, respectively. The binding result with full-length Factor B was “no binding (tested: 1 µg/mL biotinylated factor B)”. The “Ratio OD fBb/fB (ELISA)” value with purified human Factor Bb [4] was 70.7.

Broadly, the EC50 is the concentration needed to bring the measured effect to its halfway point. For orientation: EC50 (read off the curve) means the concentration giving half of the maximal effect.
